B1: Serine/threonine-protein kinase A-Raf, residues 21 to 89; numbered along this chain, P10398 (parent)
chain: VKVYLPNKQRTVVTVRDGMSVYDSLDKALKVRGLNQDCCVVYRLIKGRKTVTAWDTAIAPLDGEELIVE

Variants of: B1
Assay: abundance fitness (aPCA) (normalised: wild type 0, dead -1); higher = more abundant; growth selection in yeast, the domain comes from the species named
Conditions: Homo sapiens

Abundance fitness of substitutions, site by site:
K49: H -0.551, C -0.672, E -0.847, A -0.516, P -0.445, R -0.135, L -0.331, M -0.22, G -0.863, T -0.968, D -0.804, S -0.8, Q -0.566, F -0.63
V40: M -0.058, T -0.164, K -0.117, S -0.321, A -0.021, F -0.828, C -0.087, I -0.09, L -0.259, E -0.253, R -0.131, Y -0.273, P -0.925, G -0.857, Q 0.073
Y42: V -0.864, A -1.05, N -0.159, W -0.366, S -0.525, M -0.684, K -0.481, T -0.561, I -0.844, H -0.557, L -1.02, F -0.004, P -0.926, G -0.824, E -1.02, R -1.15, D -0.928, Q -0.945
V41: F -0.846, T -0.8, P -0.555, Y -0.938, G -0.899, C -0.15, H -0.641, R -0.559, Q -0.849, M -0.711, S -0.515, D -0.841, N -0.836, I -0.507, L -0.143, W -0.549, A -0.274, K -0.685
R43: E -0.824, W -0.911, H -0.072, G -0.907, N -0.602, L -0.963, M -1, P -0.822, C -0.742, K -0.205, T -0.225, V -0.703, S -0.305, D -0.939, I -1, A -0.721, Q -0.102
G47: V -0.863, D -0.71, K -0.768, N -0.665, M -1.06, C -0.826, R -0.841, H -0.907, S -0.734, E -0.573, F -0.998, Q -0.359, P -0.959, L -0.873, W -0.888
C39: W -0.841
I45: T -0.319, W -0.1, G -0.198, V -0.067, L -0.11, Q -0.078, Y -0.077, F -0.179, S -0.087, P -1.1, N -0.435, E -0.224, K 0.089, D -0.1, H -0.026, C -0.458, A -0.318, R -0.098, M -0.508
L44: F -0.197, K -0.031, P -0.853, V -0.112, T -0.169, N -0.082, W -0.059, Y -0.037, G -0.767, S -0.15, A -0.475, E -0.279, M 0.069, C -0.684, I 0.073, Q -0.307, D -0.65, R -0.108
K46: V -0.792, E 0.102, G 0.014, R -0.024, C -0.133, N 0.228, Q -0.009, T -0.383, D 0.199, H -0.259, W -0.667, P -0.941, L -0.437, A 0.001, S -0.08, Y -0.41
R48: D -0.271, C -0.366, T -0.072, S -0.288, A -0.128, Q -0.094, K 0.097, E 0.025, V 0.05, H -0.025, P -0.474, W -0.535, F -0.216, L -0.307, G -0.479, M -0.183

From the Human Domainome abundance scans (Beltran et al. 2025)
